From patent publication US20220313789A1, “TARGETING MELANOCORTIN 3 RECEPTOR FOR TREATMENT/PREVENTION OF EATING, METABOLISM, AND/OR EMOTIONAL DISORDERS” (The Regents of the University of Michigan, priority 2019, published 2022)
Entries after “also recorded” stand apart in the source; their conditions may differ. Bridge positions count the residues as written; N and C are the ends. Square brackets hold non-standard residues; d marks the D form. Ends that are not written are not given here. d2Nal = N[C@H](Cc1ccc2ccccc2c1)C(=O)O; Ac6c = NC1(C(=O)O)CCCCC1; Nle = CCCC[C@H](N)C(=O)O

Tests used:
MC3R [1] = biological target: T1, MC3R (Mus musculus, UniProt P33033); test: MC3R agonist feeding assays (food intake, body weight) in WT mice; format: in vivo; settings: for Acute food intake: 10 mg/kg, i.p., ad libitum fed mice, relative to vehicle; for 24-hour food intake / body weight: single peripheral injection
T1 construct: from tissue; host or cells: living mice (C57/BL6J background), central nervous system / hypothalamus
Method: Clozapine-N-Oxide (CNO) was purchased from Enzo Life Sciences. On the day of experiments fresh stock CNO (1 mg/0.1 ml) was prepared in water. CNO was administered via i.p. injections (200 ul Saline; 1 mg/kg). […] (5 ug; 500 nl DMSO).
Behavioral assays were performed on ad libitum fed mice. Mice were single caged for at least one week prior to starting feeding assays. Feeding assays were performed during the light period.
For peripheral administration of MC3R agonist compounds, mice were first habituated to vehicle injections (i.p.; saline in 10% DMSO; 200 ul) for 2-4 consecutive days. Following habituation and consecutive days of stable food intake in response to vehicle injections, agonist compounds were administered (i.p.; 10 mg/kg; saline in 10% DMSO). Food intake was measured following drug or vehicle administration by carefully removing food from the food hopper and weighing on a scale. Cages were changed daily during acute feeding assays to prevent spillage of food from the food hopper.
For central administration of MC3R agonist compounds we first administered vehicle injections (500 nl DMSO) for 2-4 consecutive days to habituate mice to handling and injection. […] Body weight was measured daily immediately prior to injections.

MC3R [2] = biological target: T2, MC3R (Homo sapiens, UniProt P41968); settings: cited from earlier work
MC3R [3] = biological target: T2, MC3R; settings: cited from earlier work; remark: listed apart in the source
MC4R [4] = biological target: T3, MC4R (Homo sapiens, UniProt P32245); settings: cited from earlier work
MC4R [5] = biological target: T3, MC4R; settings: cited from earlier work; remark: listed apart in the source
[6] = tested on: arcuate MC3R expressing neurons (hM3Dq); test: DREADD (hM3Dq) activation of arcuate MC3R neurons by CNO; format: in vivo, mice
Description: (§1) FIG. 2. Potent Bidirectional Regulation of Feeding by DREADD Activation of MC3R ARC neurons. (A) Representative images showing hM3Dq-mCherry (red), and cfos (green), in the arcuate nucleus of a mouse transduced with hM3Dq in arcuate MC3R expressing neurons following CNO or saline administration. Panels on right are an enlargement of the boxed sections. (B) Quantification of cfos expression in the arcuate nucleus following i.p. injections of saline or CNO (unpaired Student's t-test). […] (C) Acute feeding assays following DREADD mediated activation of arcuate MC3R neurons. Activation of MC3R neurons increased food intake at all times tested (2-way ANOVA with Bonferroni post-hoc test, n=10 mice). (D) Change in body weight following a single injection of CNO or saline. […] (E) Daily food intake in MC3R-Cre mice targeted with the inhibitory DREADD hM4Di in arcuate MC3R expressing neurons. […] (F) Change in body weight following long term CNO injections in hM4Di transfected and WT mice. […]
(§2) To evaluate the effects of DREADD mediated manipulation of ARC-MC3R neurons on feeding and body weight, mice were habituated to twice daily vehicle injections (i.p., saline; 200 ul). […] Food intake was measured twice daily (10 am and 6 pm) during chronic i.p. injection experiments. Body weight was measured daily at 10 am immediately prior to administering CNO/saline. […]

[7] = tested on: arcuate MC3R expressing neurons (hM4Di); test: DREADD (hM4Di) inhibition of arcuate MC3R neurons by CNO; format: in vivo; settings: hM4Di transfected mice vs WT control
Description: as §1, §2

WT mice = test: CNO administration to WT mice; format: in vivo
Method: FIG. 9. […] 24-hour food intake following i.p. injections of saline or CNO. […] Data represented as mean+/−s.em. Data analyzed with Student's paired t-test. n=15 mice
Given the enhanced expression of MC3R in the orexigenic arcuate AgRP neurons, relative to POMC and vGLUT2 neurons, experiments were conducted during development of embodiments herein to determine whether the dominant role of MC3R in the arcuate is to stimulate food intake and increase body weight. A previously characterized (Ref. 18; herein incorporated by reference in its entirety) MC3R-Cre mouse model in which Cre recombinase is exclusively expressed in cells containing MC3R was utilized for these experiments. To selectively activate the MC3R expressing neurons in the arcuate, a Cre dependent AAV viral vector expressing the DREADD (designer receptor exclusively activated by designer drugs) activator hM3Dq was stereotaxically targeted to the arcuate nucleus in MC3R-Cre mice (Refs 22-23; herein incorporated by reference in their entireties) (FIG. 2). It was validated that CNO administration activates ARC-MC3R neurons by measuring the neuronal activity marker, cfos, in response to CNO or saline injections. […] To determine if chronic activation of ARC-MC3R neurons is a viable strategy for increasing food intake and body weight CNO was administered twice daily for five consecutive days. […]

PVN MC4R neurons = test: In vivo calcium imaging (GCAMP6s endomicroscopy) of PVN MC4R neurons; set-up: species or system mice; settings: 10 mg/kg, i.p., vs baseline
Method: (left panels): Heat map displaying relative fluorescence, determined by endomicroscopy (Inscopix) of individual PVN MC4R neurons for five minutes of baseline recording, followed by five minutes of recording in response to a saline injection.
D: Change in florescence following i.p. administration of saline. […] F: Change in fluorescence following i.p. administration of the MC3R agonist C18 (10 mg/kg, i.p.). […] G: Heat plot showing real-time change in fluorescence activity in a representative mouse during baseline and following administration of C18. H: Average trace of the relative change in fluorescence before and after C18 administration. […] Data represents mean+/−s.e.m. for panels D-F. Panels D, F, and I analyzed with paired Student's t-test.

MC3R [8] = biological target: T2, MC3R; test: Primary HTS antagonist assay / screen for MC3R antagonists
Description: Primary HTS antagonist assay. […] (B): Positive and negative assay with kinetics of antagonist and agonist addition indicated. (C): Scatterplot of corrected and normalized data. Typical Z′ factors are above 0.5.

T2 sequence (P41968 whole entry): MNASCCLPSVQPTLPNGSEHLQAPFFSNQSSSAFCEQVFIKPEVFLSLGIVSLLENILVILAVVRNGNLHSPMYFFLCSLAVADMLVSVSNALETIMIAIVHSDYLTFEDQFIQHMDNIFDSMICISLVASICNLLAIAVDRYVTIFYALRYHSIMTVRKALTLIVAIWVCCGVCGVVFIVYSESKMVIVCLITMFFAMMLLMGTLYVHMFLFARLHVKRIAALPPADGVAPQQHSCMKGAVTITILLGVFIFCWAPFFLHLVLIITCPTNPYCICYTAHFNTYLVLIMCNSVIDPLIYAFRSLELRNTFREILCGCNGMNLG
T1 sequence (P33033 whole entry): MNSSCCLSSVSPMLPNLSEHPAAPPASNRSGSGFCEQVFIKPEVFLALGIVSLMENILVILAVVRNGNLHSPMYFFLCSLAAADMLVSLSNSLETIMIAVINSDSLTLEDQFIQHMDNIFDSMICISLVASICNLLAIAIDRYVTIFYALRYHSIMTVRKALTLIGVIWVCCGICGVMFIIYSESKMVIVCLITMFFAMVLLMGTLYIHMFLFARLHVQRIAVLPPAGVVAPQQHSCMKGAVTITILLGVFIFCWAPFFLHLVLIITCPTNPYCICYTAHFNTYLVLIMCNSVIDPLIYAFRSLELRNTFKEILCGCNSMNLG
T3 sequence (P32245 whole entry): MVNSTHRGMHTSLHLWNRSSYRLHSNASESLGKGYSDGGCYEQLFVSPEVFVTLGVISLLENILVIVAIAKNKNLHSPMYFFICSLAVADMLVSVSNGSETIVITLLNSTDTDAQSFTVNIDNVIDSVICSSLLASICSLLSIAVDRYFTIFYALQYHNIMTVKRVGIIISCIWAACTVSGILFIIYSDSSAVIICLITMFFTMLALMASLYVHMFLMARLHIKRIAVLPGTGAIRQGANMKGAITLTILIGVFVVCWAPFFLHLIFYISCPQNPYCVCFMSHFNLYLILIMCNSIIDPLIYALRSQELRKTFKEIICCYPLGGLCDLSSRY

[Ac6c-His-DPhe-Arg-Trp-Asp]-NH2 ([Ac6c]H[dF]RWD-NH2; N-terminus assumed; SMILES N=C(N)NCCC[C@H](NC(=O)[C@@H](Cc1ccccc1)NC(=O)[C@H](Cc1c[nH]cn1)NC(=O)C1(N)CCCCC1)C(=O)N[C@@H](Cc1c[nH]c2ccccc12)C(=O)N[C@@H](CC(=O)O)C(N)=O) [FMMC-5, MC3R peptide agonist]
Acute food intake (MC3R [1]): acutely stimulated food intake | 24-hour food intake (MC3R [1]): no significant difference | body weight (MC3R [1]): no significant difference | EC50 (MC3R [2]): 30 nM | IC50 (MC3R [3]): 10 nM | EC50 (MC4R [4]): 280 nM | IC50 (MC4R [5]): 260 nM

C[N+]1([O-])CCN(C2=Nc3cc(Cl)ccc3Nc3ccccc32)CC1 [CNO, Clozapine-N-Oxide]
cfos expression in the arcuate nucleus ([6]; i.p. CNO vs saline, hM3Dq in arcuate MC3R neurons): increased cfos expression in the arcuate nucleus; also recorded: Dense cfos expression was observed in ARC-MC3R neurons | Change in body weight ([6]; single injection of CNO or saline, hM3Dq mice, CNO 0.1 mg/kg): Body weight increased on the day following CNO injection, remaining elevated five days following CNO injection | Change in body weight ([7]; long term / twice daily CNO): reduced BW in hM4Di transfected mice; also recorded: reduced both food intake and BW | Daily food intake ([7]; twice daily CNO): reduced daily food intake in hM4Di transfected mice; also recorded: reduced both food intake and BW | body weight (WT mice; CNO injections, WT littermate control mice): No change in food intake or body weight; also recorded: No effect on BW | food intake (WT mice; i.p. CNO vs saline, WT / littermate control mice): No change in food intake or body weight; also recorded: No difference in food intake was detected

Ac-Nle-c[Asp-Pro-Pro-DNal(2′)-Arg-Trp-Lys]-NH2 (Ac-[Nle]DPP[d2Nal]RWK-NH2; lactam 2-8) [PG990]
Acute food intake (MC3R [1]): acutely stimulated food intake | weight gain (MC3R [1]; 3 days of treatment): 8% | 24 h food intake (MC3R [1]; PG990 series of peptides, route not given in the sentence): increases 24 h food intake | 24-hour food intake (MC3R [1]): no significant difference | body weight (MC3R [1]): no significant difference | Fluorescence activity of PVN MC4R neurons (PVN MC4R neurons): Fluorescence activity was suppressed

Polymyxin B
MC3R over MC4R selectivity (MC3R [8]): four-fold | potency as MC3R antagonist (MC3R [8]; screen of Vanderbilt chemical library): submicromolar potency
